Experimental data published in patent US20140287419A1, “Compositions Having Dicamba Decarboxylase Activity and Methods of Use” (priority 2013, published 2014).
Changes are numbered by the printed parent chain.

B1: SEQ ID NO:117: Design variant of SEQ ID NO: 95 (protein)
chain: MAKKPRIDMHSHFFPRISEQEAAKFDANHAPWLQVSAKGDTGSIMMGKNNFRPVYQALWDPAFRIEEMDAQGVDVQVTCATPVMFGYTWEANKAAQWAERMNDFALEFAAHNPQRIKVLAQVPLQDLDLACKEASRAVAAGHLGIQIGNHLGDKDLDDATLEAFLTHCANEDIPILVHPWDMMGGQRMKKWMLPVLVAAPAEVQLAILSLILSGAFERIPKSLKICFAGGGGSFAFLLGIVDLAWRHRDIVREDCPRPPSEYVDRFFVDSLVFNPGALELLVSVMGEDRVMLGSDYPFPTGEQKIGGLVLSSNLGESAKDKIISGNASKFFNINV
modifications: Dicamba decarboxylase variant clone DC.5.008
B2: SEQ ID NO:120: Design variant of SEQ ID NO: 100 (protein)
chain: MAIIDCHGHYTTTPKGVETYRNAQKAAVAKDPSFKYEKGQVVVSDDEIRESIENNQLKMQRERGTDLTIFSPRSTAGGHHIGNEYTSQFWTEHQNDLIRRVCDLFPKNFAPVAQLPQSPGVDPAKSVPEIVRTVEQMGFIGINLNPDPSGGYWKDTSLADRAFYPIYEKMVEYDIPAMIHPRNACNDCFHTTGSHALGADTTGFQQLIMSDVFKDFPSLKIIIPHGGGAVPYHWGRFRGLMQDQGYAPLEESALKNIYFDTCVYHQRGIDLLLDIVPTQNILFASEMIGAVRGIDAETGHNFDDTKRYIDNNTALNAEEKAMIFEGNARRVFSRLKTD
modifications: Dicamba decarboxylase variant clone DC.12.002
B3: SEQ ID NO:122: Design variant of SEQ ID NO: 100 (protein)
chain: B2 chain with T19D, Y36G, E286D, A296P
modifications: Dicamba decarboxylase variant clone DC.12.103
B4: SEQ ID NO:118: Design variant of SEQ ID NO: 95 (protein)
chain: MAKKPRIDMHSHFFPRISEQEAAKFDANHAPWLQVSAKGDTGSIMMGKNNFQPVYQALWDPAFRIEEMDAQGVDVQVTCATPVMFGYTWEANKAAQWAERMNDFALEFAAHNPQRIKVLAQVPLQDLDLACKEASRAVAAGHLGIQIGNHLGDKDLDDATLEAFLTHCANEDIPILVHGTDMMGGQRMKKWGLPWLVALAAEVQLAILSLILSGAFERIPKSLKICFSHGGGSFAFLLGLVDEAWRHVDIVREDCPRPPSEYVDRFFVDSVGNPGALELLVSVMGEDRVMLGSDYPHTTGEQKIGGLVLSSNLGESAKDKIISGNASKFFNINV
modifications: Dicamba decarboxylase variant clone DC.5.033
B5: SEQ ID NO:119: Design variant of SEQ ID NO: 95 (protein)
chain: B4 chain with T180W, P194Y, L199H, A200H, L237T, L240W, H297L
modifications: Dicamba decarboxylase variant cloneDC.5.034
B6: SEQ ID NO:1: 2,6-Dihydroxybenzoate Decarboxylase, Rhizobium sp. MTP-10005 (protein, listed as Rhizobium sp.)
chain: MAQGKVALEEHFAIPETLQDSAGFVPGDYWKELQHRLLDIQDTRLKLMDAHGIETMILSLNAPAVQAIPDRRKAIEIARRANDVLAEECAKRPDRFLAFAALPLQDPDAATEELQRCVNDLGFVGALVNGFSQEGDGQTPLYYDLPQYRPFWGEVEKLDVPFYLHPRNPLPQDSRIYDGHPWLLGPTWAFAQETAVHALRLMASGLFDEHPRLNIILGHMGEGLPYMMWRIDHRNAWVKLPPRYPAKRRFMDYFNENFHITTSGNFRTQTLIDAILEIGADRILFSTDWPFENIDHASDWFNATSIAEADRVKIGRTNARRLFKLDGA
B7: SEQ ID NO:121: Design variant of SEQ ID NO: 100 (protein)
chain: MAIIDCHGHYTTTPKGVEDYRNAQKAAVAKDPSFKGEKGQVVVSDDEIRESIENNQLKMQRERGTDLTIFSPRWDAGGHHIGNEYTSQFWTEHQNDLIRRVCDLFPKNFAPVAQLPQSPGVDPAKSVPEIVRTVEQMGFIGINLNPDPSGGYWKDTSLADRAFYPIYEKMVEYDIPAMIHPRLACNACFHTGLSVGLGADTTGFQQLIMSDVFKDFPSLKIIIPHGGGAVPYHWGRFRGLMQDQGYAPLEESALKNIYFDTCVYHQRGIDLLLDIVPTQNILFASEMIGAVRGIDPETGHNFDDTKRYIDNNTALNAEEKAMIFEGNARRVFSRLKTD
modifications: Dicamba decarboxylase variant clone DC.12.014

Assay: 14C assay with purified protein (14CO2 captured on Ca(OH)2 filter paper)
Assay type: biochemical
Details: [14C]-carboxyl-labeled dicamba

Molecule | CO2 product
B1 | not detected
B2 | not detected
B3 | not detected
B4 | not detected
B5 | not detected
B6 | detected
B7 | not detected

Assay: Detection of 2,5-DCA product by toluene capture or head-space GC/MS
Assay type: biochemical
Details: purified protein, toluene capturing
Experimental: Alternatively, dicamba decarboxylase activity can be monitored by measuring decarboxylation products other than CO2 using product detection methods. The decarboxylation product of dicamba, 2,5-dichloro anisole or 2,5-DCA (FIG. 1C), is a volatile compound with a flash point of 21° C. To capture this volatile compound for detection, 140 ul of toluene solution is added on top of 1 ml reaction mixture to form a trapping layer in a 1.5 ml eppendorf tube. […] The reaction is kept still at room temperature overnight before being vortex mixed and centrifuged at 14,000 rpm for 15 minutes. The top toluene phase is carefully removed using a micropipette and transferred into a 12×32 mm polypropylene vial (Vial 11 mm) from MicroLiter Analytical Supplies, Inc. (catalog number 11-5300-100). The vial is sealed with Crimp seal (11 mm with FEP/Nat Rubber) from MicroLiter Analytical Supplies, Inc. (catalog number 11-0020A) using a E-Z Crimper™ 11 mm from Wheaton Inc. 1 ul of the toluene mixture is taken from the sealed vials and injected in splitless mode into a GC/MS system for sample analysis (Agilent GC/MS system with a 6890A GC, a 5973N MSD and a CTC CombiPAL auto-sampler or with a 7890A GC, a 5975C MSD and an Agilent GC Sampler 80 auto-sampler). The GC parameters are: Agilent DB-5MS column (30 m length, 0.25 mm diameter, 0.25 um film) or equivalent; The GC inlet temperature, 250° C.; Carry gas, helium in constant flow mode (1.2 mL/min); The GC oven temperature program, initial temperature at 70° C. for 1 min, ramping to 200° C. at 15° C./min, and then ramping to 250° C. at 30° C./min. MS data acquisition is done in SIM (selected ion monitoring) mode, monitoring the positive ion at M/Z 176 for the molecular ion of […]. The solvent delay for MS acquisition is set at 4 min. Another method for detection of 2,5-DCA is a head-space GC/MS method. Briefly, reaction mixtures in 500 ul reaction volume are prepared in 1.5 ml×32 mm glass vials (Microliter Analytical Supplies, Cat#11-1200) for head space analysis. Glass vials are sealed with magnetic cap from MicroLiter Analytical Supplies, Inc. (catalog number 11-0030AT) using a E-Z Crimper™ 11 mm from Wheaton Industries Inc. The reaction is carried out at room temperature for various amount of time and stopped by heating at 95° C. for 5 min. The reaction vial is transferred to a agitator for incubation at 80° C. for 5 min at 500 rpm. With a syringe preheated at 80° C., 1000 uL of head space is injected with sample fill speed at 100 uL/sec. GC/MS parameters for headspace analysis are the same as for liquid sample analysis.

Molecule | 2,5-DCA product
B1 | detected
B2 | detected
B3 | detected
B4 | detected
B5 | detected
B6 | detected
B7 | detected

Assay: Detection of 4-chloro-3-methoxy phenol product by LC-MS/MS
Assay type: biochemical
Details: purified protein
Experimental: The decarboxylated and chloro hydrolyzed product, 4-chloro-3-methoxy phenol (FIG. 1D), is measured using a LC-MS/MS analytical procedure. […] 10 ul is removed from the reaction mixture and mixed with 90 ul pre-chilled methanol followed by centrifugation at 14,000 rpm for 15 min at 4° C. 10 ul of the supernatant is then transferred into 170 ul ddH2O to achieve 5% methanol solution for injection. 50 ul of the prepared sample is injected into a 4000 Q Trap LC-MS/MS system for sample analysis. LC-MS/MS parameters are: Mobile Phase A, 2 mM ammonium acetate in water; Mobile Phase B, 2 mM ammonium acetate in methanol; Column, Aquasil, 100×2.1 mm, 3 μm, C18 column; Flow Rate, 0.6 ml/min. The MS/MS fragment 157/142 which is common to 4-chloro-3-methoxy phenol, 2-chloro-5-methoxy phenol, and 3-chloro-5-methoxy phenol is monitored at a retention time of 2.88 min.

Molecule | 4-chloro-3-methoxy phenol product
B1 | not detected
B2 | not detected
B3 | not detected
B4 | not detected
B5 | not detected
B6 | detected
B7 | not detected

Assay: Detection of 2,5-DCP product by GC/MS
Assay type: biochemical
Details: purified protein
Experimental: The decarboxylated and demethylated product of dicamba, 2,5-dichloro phenol or 2,5-DCP (FIG. 1E) is measured using a GC/MS analytical procedure with either liquid injection after liquid/liquid extraction using toluene as the extraction solvent or gas injection using head space method. The head space sample analysis is carried out on an Agilent GC/MS system with a 6890A GC, a 5973N MSD and a CTC CombiPAL auto-sampler or with a 7890A GC, a 5975C MSD and an Agilent GC Sampler 80 auto-sampler with Phenomenex ZB-MultiResidue-1 column (30 m length, 0.25 mm diameter, 0.25 um film) or equivalent. GC/MS parameters are: GC inlet temperature, 200° C.; Carry gas, helium in constant flow mode (1.2 mL/min); Oven temperature program, 70° C. for 1 min and then ramp to 275° C. at 40° C./min. […] The reaction vial is transferred to a agitator for incubation at 90° C. for 4 min at 500 rpm. With a syringe preheated at 110° C., 1000 uL of head space is injected with sample fill speed at 100 uL/sec. A 2-mm diameter liner is used in sample inlet. The MS data acquisition is done in SIM (selected ion monitoring) mode. The positive ion at M/Z 162 for the molecular ion of 2,-5-DCP is monitored at retention time of 4.06 min. Solvent delay for MS acquisition is set at 3 min. GC/MS parameters for liquid sample analysis are the same as those for head space analysis, except that the volume of liquid injection is 1 uL.

Molecule | 2,5-DCP product
B1 | not detected
B2 | not detected
B3 | not detected
B4 | not detected
B5 | not detected
B6 | detected
B7 | not detected

Assay: Dicamba decarboxylation activity of computationally designed protein variants
Details: native protein or designed variant versus parent

Molecule | Dicamba Decarboxylase Activity
B1 | have dicamba decarboxylase activity
B2 | have dicamba decarboxylase activity
B3 | have dicamba decarboxylase activity
B4 | have dicamba decarboxylase activity
B5 | have dicamba decarboxylase activity
B6 | native dicamba decarboxylase activity
B7 | have dicamba decarboxylase activity

Assay: 14C assay with IPTG-induced recombinant E. coli cells (14CO2 capture from [14C]-carboxyl-labeled dicamba)
Details: E. coli cell assay, 108 sequences tested

Molecule | decarboxylation activity of dicamba
B6 | showed decarboxylation activity of dicamba
